Reference: patent US20200207857A1
Numbering of substitutions follows the chain as printed.

B1: h5C9oa (antibody, V domains shown)
VH: EVQLVESGGGLVQPGGSLRLSCAVSGYTFSMNWVRQAPGKGLEWVAWINMYTGEPTYADDFKGRFTISRDDSKNTLYLQMNSLRAEDTAVYYCARLYNGNSLDYWGQGTLVTVSS
VL: DIQMTQSPSSLSASVGDRVTITCKSSQSLLNSGNQKSYLTWYQQKPGKAPKLLIYWASTLESGVPSRFSGSGSGTDYTLTISSLQPEDFATYYCQNAYAFPFTFGQGTKVEIK
B2: h5C9oc (antibody, V domains shown)
VH: B1 VH
VL: B1 VL with A97G, A99S
B3: h5C9od (antibody, V domains shown)
VH: B1 VH
VL: B1 VL with A99W
B4: h5C9oe (antibody, V domains shown)
VH: B1 VH
VL: B1 VL with A99R
B5: h5C9of (antibody, V domains shown)
VH: B1 VH
VL: B1 VL with A97S, A99S
B6: h5C9og (antibody, V domains shown)
VH: B1 VH with N98R
VL: B1 VL with A97S, A99S
B7: 1D5 (antibody, V domains shown)
VH: VQLQESGAELVRPGTSVKVSCKASRYAFTNYLIEWVKQRPGQGLEWIGMINPGSGGTHYNEKFKVKATLTADKSSSTAYMQLNSLTSDDSAVYFCARGGFGNSFAYWGQGTLVTVSA
VL: DIMMTQTPLSLTVTAGEKVTMSCKSSQSLLNGGNLKNYLTWYQQKPGQPPKLLTYWASTRESGVPARFTGSGSGTDFTLTISSVQAEDLAVYYCQNGYFYPYTFGGGTKLEIK
B8: 7A10 (antibody, V domains shown)
VH: B7 VH with R25G, H58N, V65G, N83S
VL: B7 VL with T7S, G32S, E61D, G97D
B9: 8C12 (antibody, V domains shown)
VH: EVQLQQSGGGLVQPGGSRKLSCAASGFTFSDYGMAWVRQAPGKGPEWVAFISNLAYSIYSTDTVTGRFTISRENAKNTLYLEMSSLRSDDTAMYYCARGSYYGNSFDYWGQGTTLTVSS
VL: DIVLTQSPAIMSASPGEKVTMTCSASSSVSYMYWYQQKPGSSPKPWIYDTSNLASGFPARFSGSGSGTSYSLIISNMEAEDAATYYCHQRSSYPTFGTGTKLELK
B10: 14D7 (antibody, V domains shown)
VH: VQLQQSGGGLVQPGGSRKLSCAASGFTFSSFGMHWVRQAPEKGLEWVGYINSGSSTIYYADTVKGRFTISRDNPRNTLFLQMTSLRSEDTAMYYCASGAYYGNAMDYWGQGTSVTVSS
VL: MTQDELSLTVTAGEKVTMSCKSSQSLLNSGNQRNYLTWYQQKPGQPPKLLIYWASTRESGVPNRFTGSGSGTDFTLTISSVQAVDLAVYYCQNNYFYPLTFGSGTKLELK
B11: 4G3 (antibody, V domains shown)
VH: KVQLQQSGGGLVQPGGSRKLSCAASGFTFSSFGMHWVRQAPEKGLEWVGYINSGSSTIYYADTVKGRFTISRDNPRNTLFLQMTSLRSEDTAMYYCASGAYYGNAMDYWGQGTSVTVSS
VL: DIVMTQDELSLTVTVGDKVTMNCRSSQSLLNSGNQRNYLTWYQQKPGQPPKLLIYWASTRESGVPDRFTGSGSGTDFTLTISSVQAEDLAVYYCQNVYFYPLTFGTGTKLELK
B12: 5H7 (antibody, V domains shown)
VH: EVKLQESGPSLVKPFQSLSLTCTVTDYSITRGYNWHWIRQFPGNKLEWMGYIHYSGSTNYNPSLKSRISITRDTSKNQFFLQLNSVTTEDTATYYCARDYYGNSFAYWGQGTLVTVFC
VL: DIVMTQDELSLTVTAREKVTMSCKSSQTLFNSGNQKNYLTWYQQKPGQPPKLLIYWASTRESGVPDRFTGSGSGTDFTLTISSVQAEDLAVYYCQNDYIFPYTFGGGTKLEIK
B13: 14B7 (antibody, V domains shown)
VH: KVKLQESGPELVKPGASVKIPCKASGYTFTDYKMDWVKQSHGKSLEWIGDINPNNGGTIYNQKFKGKATLTVDRSSSTAYMELRSLTSEDTAVYYCARSYYGNSLAYWGQGTLVTVSA
VL: B12 VL with R16G, T28S, F30L, Q48L, D97N, F100Y, Y102L, G106A, I112L
B14: 5G7 (antibody, V domains shown)
VH: KVQLQESGPELVRPGTSVKVSCKASKYAFTNYLIEWIKQRPGQGLEWIGMINPGSDGSHYNEKFKGKATLTADKSSSTAYMQLSSLTSDDSAVYFCARVGYGNSFAYWGQGTLVTVSA
VL: B10 VL with M18L, P43K, N63D, F65L, S80G, V84E, N94A, F96Y, L99F, L109I
B15: h5C9a (antibody, V domains shown)
VH: EVQLVESGGGLVQPGGSLRLSCAASGYTFTNYGMNWVRQAPGKGLEWVAWINMYTGEPTYADDFKGRFTISRDDSKNTLYLQMNSLRAEDTAVYYCARLYNGNSLDYWGQGTLVTVSS
VL: B1 VL with Y77F, A99S
B16: h5C9n (antibody, V domains shown)
VH: B15 VH with A24V
VL: B1 VL with Y77F, A99S
B17: h5C9ok (antibody, V domains shown)
VH: B1 VH with Y97T, N98R
VL: B1 VL with A99S
B18: h5C9ol (antibody, V domains shown)
VH: B1 VH with Y97G, N98P, S101V, L102F
VL: B1 VL with A99S
B19: h5C9om (antibody, V domains shown)
VH: B1 VH with Y97A, N98R, S101G, L102F
VL: B1 VL with A99S
B20: h5C9on (antibody, V domains shown)
VH: B1 VH with L96T, Y97A, N98P, S101G, L102F
VL: B1 VL with A99S
B21: h5C9oo (antibody, V domains shown)
VH: B1 VH with Y97V, N98R, S101G, L102F
VL: B1 VL with A99S
B22: h5C9op (antibody, V domains shown)
VH: B1 VH with L96T, Y97S, N98R, S101G, L102M
VL: B1 VL with A99S
B23: h5C9oq (antibody, V domains shown)
VH: B1 VH with N98R, S101V, L102M
VL: B1 VL with A99S
B24: h5C9os (antibody, V domains shown)
VH: B1 VH with L96T, Y97G, N98T, S101T, L102M
VL: B1 VL with A99S
B25: h5C9or (antibody, V domains shown)
VH: B1 VH with Y97N, N98R, L102M
VL: B1 VL with A99S
B26: h5C9ot (antibody, V domains shown)
VH: B1 VH with L96S, Y97S, N98M, S101G, L102F
VL: B1 VL with A99S
B27: h5C9ou (antibody, V domains shown)
VH: B1 VH with Y97S, N98K, S101G, L102M
VL: B1 VL with A99S
B28: h5C9ov (antibody, V domains shown)
VH: B1 VH with Y97V, N98K, S101G, L102F
VL: B1 VL with A99S
B29: h5C9ow (antibody, V domains shown)
VH: B1 VH with Y97T, N98K, S101G, L102M
VL: B1 VL with A99S
B30: h5C9ox (antibody, V domains shown)
VH: B1 VH with L96A, Y97S, N98R, S101G, L102M
VL: B1 VL with A99S
B31: h5C9oy (antibody, V domains shown)
VH: B1 VH with L96S, Y97S, N98K, S101G
VL: B1 VL with A99S
B32: h5C9oz (antibody, V domains shown)
VH: B1 VH with Y97S, N98R
VL: B1 VL with A99S
B33: h5C9oaa (antibody, V domains shown)
VH: B1 VH with Y97V, N98R, S101G, L102M
VL: B1 VL with A99S
B34: h5C9oap (antibody, V domains shown)
VH: B1 VH with P55R
VL: B1 VL with S32W, E61Q, A99S
B35: h5C9oaq (antibody, V domains shown)
VH: B1 VH with P55Q
VL: B1 VL with S32W, E61F, A99S
B36: h5C9oar (antibody, V domains shown)
VH: B1 VH with T56N
VL: B1 VL with S32W, E61W, A99S

target: Recombinant protein Claudin 18.2; experiment: ELISA on plate-coated recombinant Claudin 18.2, OD450; Kd table under the graph, no unit in the table, unit from the x axis log[antibody] nM
Sequence (chain, as listed by the source limits assumed, form in doubt): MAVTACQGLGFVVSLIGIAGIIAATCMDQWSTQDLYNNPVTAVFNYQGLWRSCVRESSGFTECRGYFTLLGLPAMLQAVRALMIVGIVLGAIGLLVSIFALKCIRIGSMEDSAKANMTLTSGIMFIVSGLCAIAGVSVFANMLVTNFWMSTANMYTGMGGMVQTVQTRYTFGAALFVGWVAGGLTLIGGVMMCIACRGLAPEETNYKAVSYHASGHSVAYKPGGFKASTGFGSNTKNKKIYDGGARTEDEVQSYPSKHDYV

In order of rising Kd:
1. B2  0.0848 nM
2. B3  0.0876 nM
3. B4  0.0878 nM
4. B6  0.0884 nM
5. B1  0.0894 nM
6. B5  0.103 nM

target: Recombinant protein Claudin 18.2; experiment: ELISA on plate-coated recombinant Claudin 18.2, OD370; Kd table under the graph, no unit in the table, unit from the x axis log[antibody] nM

In order of rising Kd:
1. B7  0.055 nM
2. B9  0.0782 nM
3. B10  0.1 nM
4. B8  0.103 nM
5. B12  0.136 nM
6. B13  0.2 nM
7. B14  0.293 nM
8. B11  0.343 nM

target: Recombinant protein Claudin 18.2; experiment: ELISA on plate-coated recombinant Claudin 18.2, OD450; Kd table under the graph, no unit in the table, unit from the x axis log[antibody] nM; remark: another data set of the same source

In order of rising Kd:
1. B25  0.0715 nM
2. B32  0.0778 nM
3. B30  0.079 nM
4. B33  0.0815 nM
5. B29  0.0882 nM
6. B27  0.0919 nM
7. B26  0.0987 nM
8. B19  0.1 nM
9. B31  0.103 nM
10. B23  0.107 nM
11. B28  0.107 nM
12. B17  0.108 nM
13. B22  0.109 nM
14. B18  0.119 nM
15. B21  0.122 nM
16. B20  0.131 nM
17. B24  0.134 nM
18. B36  0.149 nM
19. B34  0.189 nM
20. B35  0.203 nM
21. B15  0.278 nM
22. B16  0.323 nM
